B1: PAIP1 peptide 124-139 (Polyadenylate-binding protein-interacting protein 1), 16-mer library wild type / PABPC1 PABC (PABPC1 PABC domain, residues 544-623) (parent)
chain 1: LMSKLSVNAPEFYPSG
chain 2: PLTASMLASAPPQEQKQMLGERLFPLIQAMHPTLAGKITGMLLEIDNSELLHMLESPESLRSKVDEAVAVLQAHQAKEAA
B2: PEX5 peptide 108-123 (Peroxisomal targeting signal 1 receptor), 16-mer library wild type / PEX14 Pex14 (PEX14 PEX14, residues 16-84) (parent)
chain 1: GVADLALSENWAQEFL
chain 2: TPGSENVLPREPLIATAVKFLQNSRVRQSPLATRRAFLKKKGLTDEEIDMAFQQSGTAADEPSSLGPAT
B3: TPTE2 peptide 92-107 (Phosphatidylinositol 3,4,5-trisphosphate 3-phosphatase TPTE2), 16-mer library wild type / TLN1 PTB (TLN1 Phosphotyrosine-binding (PTB) domain, residues 309-401) (parent)
chain 1: LADLIFTDSKLYIPLE
chain 2: GVSFFLVKEKMKGKNKLVPRLLGITKECVMRVDEKTKEVIQEWNLTNIKRWAASPKSFTLDFGDYQDGYYSVQTTEGEQIAQLIAGYIDIILK

Variants of: B1
Assay: proteomic peptide phage display deep mutational scan (ProP-PD DMS): M13 P8 16-mer library selected against immobilised GST-tagged bait for four days (rounds), NGS of the eluted pools per day and pseudo-replica
Details: with PABPC1 PABC (PABPC1 PABC domain, residues 544-623); bait immobilised on MaxiSorp plates (10 µg), library pre-cleared on GST, 2 h binding at 4 °C, five washes; one round per day, days 1-4; value from days 2 and 3; keep out of graded; scale: average fractional NGS count over selection days 2 and 3

| screen value | Variant |
| --- | --- |
| 0.000185 | chain 1 P10V |
| 0 | chain 1 P10W |
| 0 | chain 1 N8K |
| 0.000156 | chain 1 N8Q |
| 0.000197 | chain 1 N8H |
| 0.000243 | chain 1 N8V |
| 9.39e-05 | chain 1 N8I |
| 0.000141 | chain 1 S15L |
| 0.000163 | chain 1 P14S |
| 8.32e-05 | chain 1 P14T |
| 0 | chain 1 P14N |
| 4.17e-05 | chain 1 P14H |
| 0.000167 | chain 1 P14F |
| 1.45e-05 | chain 1 V7L |
| 0 | chain 1 V7K |
| 0.000112 | chain 1 V7T |
| 0 | chain 1 V7M |
| 0.00011 | chain 1 V7I |
| 0 | chain 1 M2Y |
| 1.57e-05 | chain 1 M2F |

| screen value | Variant |
| --- | --- |
| 0.000185 | chain 1 M2R |
| 0.000247 | chain 1 M2H |
| 9.64e-06 | chain 1 M2D |
| 4.7e-05 | chain 1 S6Q |
| 0 | chain 1 S6K |
| 0.000112 | chain 1 K4S |
| 0.000173 | chain 1 K4F |
| 0.000136 | chain 1 K4W |
| 0.00023 | chain 1 S3Y |
| 4.71e-05 | chain 1 S3F |
| 0 | chain 1 S3R |
| 6.08e-05 | chain 1 L5I |
| 7.31e-05 | chain 1 L5F |
| 5.13e-05 | chain 1 L5Y |
| 0 | chain 1 L5V |
| 0 | chain 1 L5S |
| 0.00011 | chain 1 L5E |
| 0 | chain 1 Y13P |
| 8.82e-05 | chain 1 Y13F |
| 3.07e-05 | chain 1 Y13N |

Continued, variant first:

| Variant | screen value |
| --- | --- |
| chain 1 A9T | 0.000154 |
| chain 1 A9M | 0 |
| chain 1 A9L | 0 |
| chain 1 A9V | 8.33e-05 |
| chain 1 A9G | 0 |
| chain 1 E11H | 0.000179 |
| chain 1 E11W | 0 |
| chain 1 E11L | 0.000185 |
| chain 1 F12D | 0 |
| chain 1 F12A | 0 |
| chain 1 G16P | 0.000264 |
| chain 1 G16L | 0.000165 |

Variants of: B2
Assay: as above
Details: with PEX14 Pex14 (PEX14 PEX14, residues 16-84); bait immobilised on MaxiSorp plates (10 µg), library pre-cleared on GST, 2 h binding at 4 °C, five washes; one round per day, days 1-4; value from days 2 and 3; scale: average fractional NGS count over selection days 2 and 3

| screen value | Variant |
| --- | --- |
| 0 | chain 1 L7H |
| 0.000778 | chain 1 L7G |
| 0 | chain 1 L7N |
| 0.00013 | chain 1 L7S |
| 0.000262 | chain 1 L7K |
| 0.000211 | chain 1 N10W |
| 0.00066 | chain 1 N10P |
| 0.000139 | chain 1 N10S |
| 0.000191 | chain 1 N10L |
| 0 | chain 1 N10G |
| 6.63e-05 | chain 1 N10M |
| 0 | chain 1 S8D |
| 0.0012 | chain 1 S8Y |
| 0 | chain 1 S8Q |
| 9.07e-05 | chain 1 S8P |
| 0.000967 | chain 1 S8E |
| 0.00065 | chain 1 L5V |
| 0 | chain 1 L5N |
| 0.000435 | chain 1 L5W |
| 0.000821 | chain 1 L5Y |

| screen value | Variant |
| --- | --- |
| 0.000362 | chain 1 Q13H |
| 0.000434 | chain 1 Q13E |
| 0.000475 | chain 1 Q13L |
| 0.00131 | chain 1 Q13Y |
| 0 | chain 1 Q13F |
| 0.000241 | chain 1 Q13R |
| 0 | chain 1 V2N |
| 0.00067 | chain 1 V2Y |
| 0.000476 | chain 1 V2Q |
| 0 | chain 1 V2T |
| 0 | chain 1 V2K |
| 0 | chain 1 V2R |
| 0 | chain 1 V2I |
| 0 | chain 1 V2W |
| 0 | chain 1 L16N |
| 0 | chain 1 L16I |
| 0 | chain 1 L16D |
| 0.00105 | chain 1 L16G |
| 0.00162 | chain 1 L16W |
| 0.000183 | chain 1 L16K |

The next lines start with the variant.

| Variant | screen value |
| --- | --- |
| chain 1 A6L | 0.000211 |
| chain 1 A6V | 0 |
| chain 1 A6Q | 0.000383 |
| chain 1 A6H | 0.000488 |
| chain 1 E14F | 0.000333 |
| chain 1 E14G | 0.000243 |
| chain 1 E14W | 0.00347 |
| chain 1 E14I | 0.000908 |
| chain 1 E14L | 0.000529 |
| chain 1 E14V | 0.000334 |
| chain 1 E14R | 0.00542 |
| chain 1 E14Q | 0.00136 |
| chain 1 E14H | 0.000765 |
| chain 1 E14P | 0 |
| chain 1 F15I | 0 |
| chain 1 F15Y | 0 |
| chain 1 A3E | 7.71e-05 |
| chain 1 A3S | 0.000118 |
| chain 1 A3F | 0 |
| chain 1 A3D | 0 |
| chain 1 A3W | 7.47e-05 |

| Variant | screen value |
| --- | --- |
| chain 1 A3P | 0.000212 |
| chain 1 D4L | 0.00112 |
| chain 1 D4A | 0.000207 |
| chain 1 D4E | 0.000293 |
| chain 1 A12H | 0.000439 |
| chain 1 A12S | 0.000254 |
| chain 1 A12D | 0 |
| chain 1 A12P | 0 |
| chain 1 A12V | 0 |
| chain 1 A12G | 0.000152 |
| chain 1 A12W | 6.63e-05 |
| chain 1 A12T | 0.000373 |
| chain 1 A12F | 0.000389 |
| chain 1 E9N | 0.000239 |
| chain 1 E9Q | 0 |
| chain 1 E9T | 9.07e-05 |
| chain 1 E9Y | 9.07e-05 |
| chain 1 E9F | 0.000305 |
| chain 1 E9I | 0 |
| chain 1 E9M | 0.000152 |
| chain 1 E9R | 0 |

Variants of: B3
Assay: as above
Details: with TLN1 PTB (TLN1 Phosphotyrosine-binding (PTB) domain, residues 309-401); bait immobilised on MaxiSorp plates (10 µg), library pre-cleared on GST, 2 h binding at 4 °C, five washes; one round per day, days 1-4; value from days 2 and 3; keep out of graded; scale: average fractional NGS count over selection days 2 and 3

| screen value | Variant |
| --- | --- |
| 4.09e-05 | chain 1 L11Y |
| 0 | chain 1 L11W |
| 6.5e-05 | chain 1 L11A |
| 0.000112 | chain 1 L11F |
| 3.91e-05 | chain 1 L11S |
| 0 | chain 1 L4R |
| 6.56e-05 | chain 1 L4K |
| 5.11e-05 | chain 1 L4N |
| 5.85e-05 | chain 1 I13Y |
| 0 | chain 1 Y12L |
| 0 | chain 1 Y12Q |
| 4.1e-05 | chain 1 T7A |
| 3.48e-05 | chain 1 T7I |
| 6.19e-05 | chain 1 T7R |
| 3.05e-05 | chain 1 T7F |
| 8.56e-05 | chain 1 T7E |
| 7.83e-05 | chain 1 K10V |
| 6.74e-05 | chain 1 K10W |

Continued, variant first:

| Variant | screen value |
| --- | --- |
| chain 1 E16R | 3.05e-05 |
| chain 1 D3W | 0 |
| chain 1 D3A | 4.9e-05 |
| chain 1 D3H | 0.000117 |
| chain 1 D3F | 9.05e-05 |
| chain 1 I13D | 0 |
| chain 1 I13Q | 8.06e-05 |
| chain 1 I13M | 3.76e-05 |
| chain 1 I13S | 9.27e-05 |
| chain 1 I13H | 7.12e-05 |
| chain 1 I13W | 0.000116 |
| chain 1 A2V | 0.000107 |
| chain 1 A2F | 2.74e-05 |
| chain 1 D8H | 2.4e-05 |
| chain 1 D8M | 0 |
